Target: wild-type SARS-CoV-2 Spike receptor-binding domain (SARS-CoV-2, UniProt P0DTC2 319-527)
Test: SPR

B1: (ΔGFG)AMSIN (peptide)
chain: CPWNAYECDRHCVSKGYTGGNCRGKIRQTCHCY
  koff: 0.0223 s⁻¹
